Source: paper PMC5220320 (Scientific Reports, 2017)

Experiments:
CC1=CC(=O)c2ccccc2C1=O = assay: steady-state kinetics (KM); compromised binding; type: biochemical, Caldalkalibacillus thermarum; conditions: FAD quinone-binding site; clashes with the side chain of E379
[1] = molecular target: T1, NDH-2 (type II NADH:quinone oxidoreductase) (Caldalkalibacillus thermarum, UniProt F5L3B8); assay: spectroscopic titration of reduced enzyme (CTC), upper limit for KD; co-crystal structure at […] Å; type: binding
T1 construct: gene CathTA2_0279
T1 sequence (F5L3B8 1-399): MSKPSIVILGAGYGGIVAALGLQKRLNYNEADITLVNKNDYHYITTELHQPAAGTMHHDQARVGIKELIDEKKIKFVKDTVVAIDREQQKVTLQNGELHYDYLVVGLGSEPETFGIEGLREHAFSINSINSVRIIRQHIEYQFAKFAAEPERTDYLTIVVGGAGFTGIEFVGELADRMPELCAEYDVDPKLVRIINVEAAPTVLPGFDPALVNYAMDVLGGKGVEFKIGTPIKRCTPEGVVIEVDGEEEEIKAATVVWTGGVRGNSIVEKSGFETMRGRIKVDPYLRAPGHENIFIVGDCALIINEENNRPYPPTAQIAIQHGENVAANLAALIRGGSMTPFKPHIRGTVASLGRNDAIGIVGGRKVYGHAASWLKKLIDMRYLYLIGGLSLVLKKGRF

[2] = molecular target: T2, NDH-2 (type II NADH:quinone oxidoreductase) (Caldalkalibacillus thermarum, UniProt F5L3B8, G164E); assay: steady-state kinetics (KM); compromised binding, no CTC; type: biochemical
T2 construct: gene CathTA2_0279
T2 sequence (F5L3B8 1-399 G164E): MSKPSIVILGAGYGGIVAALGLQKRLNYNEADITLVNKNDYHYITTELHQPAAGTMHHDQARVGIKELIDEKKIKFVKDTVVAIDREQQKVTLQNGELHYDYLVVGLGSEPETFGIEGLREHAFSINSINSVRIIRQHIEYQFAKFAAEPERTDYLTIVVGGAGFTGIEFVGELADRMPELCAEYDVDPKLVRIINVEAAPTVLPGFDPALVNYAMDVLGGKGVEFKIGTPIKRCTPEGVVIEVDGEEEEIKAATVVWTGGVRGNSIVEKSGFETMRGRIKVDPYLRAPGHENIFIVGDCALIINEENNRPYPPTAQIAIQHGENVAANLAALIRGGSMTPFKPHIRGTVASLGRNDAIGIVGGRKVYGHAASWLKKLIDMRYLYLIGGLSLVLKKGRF

[3] = molecular target: T3, NDH-2 (type II NADH:quinone oxidoreductase) (Caldalkalibacillus thermarum, UniProt F5L3B8, I379E); assay: CTC formation by absorbance and stopped-flow flavin reduction; type: binding
T3 construct: gene CathTA2_0279
T3 sequence (F5L3B8 1-399 I379E): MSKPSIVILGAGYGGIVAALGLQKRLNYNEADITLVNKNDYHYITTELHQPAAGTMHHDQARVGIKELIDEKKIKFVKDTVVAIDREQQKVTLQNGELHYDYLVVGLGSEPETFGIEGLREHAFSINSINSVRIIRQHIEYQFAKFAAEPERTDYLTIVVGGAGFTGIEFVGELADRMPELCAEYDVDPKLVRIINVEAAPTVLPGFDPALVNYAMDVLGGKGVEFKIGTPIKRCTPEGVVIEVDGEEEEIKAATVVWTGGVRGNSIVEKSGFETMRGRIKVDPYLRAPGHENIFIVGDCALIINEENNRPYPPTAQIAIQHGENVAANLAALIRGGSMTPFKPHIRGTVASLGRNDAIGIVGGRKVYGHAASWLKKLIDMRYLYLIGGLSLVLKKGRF

[4] = substrate: CC1=CC(=O)c2ccccc2C1=O; assay: steady-state kinetics (KM) and stopped-flow flavin reoxidation; type: biochemical, Caldalkalibacillus thermarum; conditions: FAD quinone-binding site on the opposite face of the flavin to the nucleotide-binding site; I379 at the entry
purified protein [5] = substrate: CC(=O)c1ccc[n+]([C@@H]2O[C@H](COP(=O)([O-])OP(=O)(O)OC[C@H]3O[C@@H](n4cnc5c(N)ncnc54)[C@H](O)[C@@H]3O)[C@@H](O)[C@H]2O)c1; assay: purified protein; conditions: FAD competes with NAD+ for the reduced flavin
purified protein [6] = substrate: NC(=O)C1=CN([C@@H]2O[C@H](COP(=O)(O)OP(=O)(O)OC[C@H]3O[C@@H](n4cnc5c(N)ncnc54)[C@H](O)[C@@H]3O)[C@@H](O)[C@H]2O)C=CC1; assay: purified protein; conditions: FAD nucleotide-binding site, nicotinamide ring juxtaposed over the flavin; E198 hydrogen bonds to the adenine ribose; F165 moves

How did the Km (CC1=CC(=O)c2ccccc2C1=O) turn out when “NDH-2 (type II NADH:quinone oxidoreductase) (Caldalkalibacillus thermarum TA2.A1; I379E)” was run?
Its Km is 780 µM.

For `NC(=O)c1ccc[n+]([C@@H]2O[C@H](COP(=O)([O-])OP(=O)(O)OC[C@H]3O[C@@H](n4cnc5c(N)ncnc54)[C@H](O)[C@@H]3O)[C@@H](O)[C@H]2O)c1` [NAD^+], which Kd [1] is on record?
The Kd was < 2000 nM.

Which Km [2] does the source give for `NC(=O)C1=CN([C@@H]2O[C@H](COP(=O)(O)OP(=O)(O)OC[C@H]3O[C@@H](n4cnc5c(N)ncnc54)[C@H](O)[C@@H]3O)[C@@H](O)[C@H]2O)C=CC1` [NADH] here?
Its Km is > 1000 µM.

What about the “CTC formation by absorbance and stopped-flow flavin reduction” value [3] of the same molecule?
Its value is “When oxidized I379E reacts with NADH, the flavin is reduced and a CTC forms, as in the WT enzyme”.

B1: NDH-2 (type II NADH:quinone oxidoreductase) (Caldalkalibacillus thermarum TA2.A1) (protein)
chain: MSKPSIVILGAGYGGIVAALGLQKRLNYNEADITLVNKNDYHYITTELHQPAAGTMHHDQARVGIKELIDEKKIKFVKDTVVAIDREQQKVTLQNGELHYDYLVVGLGSEPETFGIEGLREHAFSINSINSVRIIRQHIEYQFAKFAAEPERTDYLTIVVGGAGFTGIEFVGELADRMPELCAEYDVDPKLVRIINVEAAPTVLPGFDPALVNYAMDVLGGKGVEFKIGTPIKRCTPEGVVIEVDGEEEEIKAATVVWTGGVRGNSIVEKSGFETMRGRIKVDPYLRAPGHENIFIVGDCALIINEENNRPYPPTAQIAIQHGENVAANLAALIRGGSMTPFKPHIRGTVASLGRNDAIGIVGGRKVYGHAASWLKKLIDMRYLYLIGGLSLVLKKGRF
Which results are given for B1?
Km [4]: 34 µM; Km (purified protein [5]): 7.2 µM; Km (purified protein [6]): 29 µM
